Laboratory results as given in US20210054048A1.

Biological target: alcohol dehydrogenase (ADH)
Assay: cell-based or functional assay

decrease in ADH aggregation (optical density at 360 nm, 48° C., 2 h): 61%
Substance: CryS96 (αB-crystallin peptide fused with ELP S96)
